The results in this text go back to patent publication US20250340591A1, “COMPOSITION FOR PREVENTING OR TREATING INFLAMMATORY BOWEL DISEASE CONTAINING NOVEL COMPOUND” (ANYGEN CO., LTD., priority 2021, published 2025).

The labels stand for the following.
T1: GPR39 (G protein coupled receptor 39) (UniProt O43194 1-453, limits assumed)
T1 sequence (looked up): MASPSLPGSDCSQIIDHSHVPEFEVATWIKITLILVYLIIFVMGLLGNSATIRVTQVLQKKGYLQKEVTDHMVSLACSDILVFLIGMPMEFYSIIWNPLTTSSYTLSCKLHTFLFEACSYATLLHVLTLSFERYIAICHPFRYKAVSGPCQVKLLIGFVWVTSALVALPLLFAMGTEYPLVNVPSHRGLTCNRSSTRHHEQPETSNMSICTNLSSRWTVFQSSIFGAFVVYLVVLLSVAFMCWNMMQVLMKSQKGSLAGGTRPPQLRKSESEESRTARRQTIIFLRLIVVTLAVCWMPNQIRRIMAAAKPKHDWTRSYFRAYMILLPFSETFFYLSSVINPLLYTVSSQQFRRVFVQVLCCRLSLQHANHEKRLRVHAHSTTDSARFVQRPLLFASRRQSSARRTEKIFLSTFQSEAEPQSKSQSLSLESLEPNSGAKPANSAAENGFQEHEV

Square brackets hold non-standard residues; d marks the D form. Ends that are not written are not given here. * marks the point of attachment. DAMP‑2 = 1,3-bis(2-cyclohexylethyl) substitution on the histidine imidazole ring (1,3-bis(2-cyclohexylethyl)-2,3-dihydro-1H-imidazol-4-yl side chain), C1=C(*)N(CCC2CCCCC2)CN1CCC1CCCCC1; 2‑(4-tert-butyl)phenyl = 2-(4-tert-butylphenyl) substituent on the histidine imidazole (2-(4-(tert-butyl)phenyl)-1H-imidazol-4-yl), CC(C)(C)c1ccc(*)cc1; DAMP‑5 = 3-(2-cyclohexylethyl) substitution on the histidine imidazole ring (3-(2-cyclohexylethyl)-2,3-dihydro-1H-imidazol-4-yl side chain); DAMP‑3 = 1,3-diphenethyl substitution on the histidine imidazole ring (1,3-diphenethyl-2,3-dihydro-1H-imidazol-4-yl side chain); thiophene = 2-(thiophen-2-yl) substituent on the histidine imidazole (2-(thiophen-2-yl)-1H-imidazol-4-yl), c1csc(*)c1; 4‑methoxybenzhydryl = (4-methoxyphenyl)(phenyl)methyl on the His imidazole, COc1ccc(C(c2ccccc2)*)cc1; 1,2‑diphenyl = 1,2-diphenyl substituents on the histidine imidazole (1,2-diphenyl-1H-imidazol-4-yl); 1‑phenyl = 1-phenyl substituent on the histidine imidazole (1-phenyl-1H-imidazol-4-yl), c1ccc(*)cc1; 2‑phenyl = 2-phenyl substituent on the histidine imidazole (2-phenyl-1H-imidazol-4-yl), c1ccc(*)cc1; 4‑hydroxybenzhydryl = (4-hydroxyphenyl)(phenyl)methyl on the His imidazole, Oc1ccc(C(c2ccccc2)*)cc1; Tyr(3,5-(NO2)2) = N[C@@H](Cc1cc([N+](=O)[O-])c(O)c([N+](=O)[O-])c1)C(=O)O; Tyr(3-NO2) = N[C@@H](Cc1ccc(O)c([N+](=O)[O-])c1)C(=O)O; Biotin = O=C1N[C@H]2[C@H](CS[C@H]2CCCCC(=O)*)N1; dPhe(4-CF3) = N[C@H](Cc1ccc(C(F)(F)F)cc1)C(=O)O; 1‑(4-tert-butyl)phenyl = CC(C)(C)c1ccc(*)cc1; Tyr(3-Cl) = N[C@@H](Cc1ccc(O)c(Cl)c1)C(=O)O; Tyr(3-NH2) = Nc1cc(C[C@H](N)C(=O)O)ccc1O; dPhe(4-Cl) = N[C@H](Cc1ccc(Cl)cc1)C(=O)O; dPhe(4-Me) = Cc1ccc(C[C@@H](N)C(=O)O)cc1; Mtt = Cc1ccc(C(c2ccccc2)(c2ccccc2)*)cc1; Trt = c1ccc(C(c2ccccc2)(c2ccccc2)*)cc1; Benzhydryl = c1ccc(C(c2ccccc2)*)cc1; 2‑cyclohexylethyl = C1CCC(CC*)CC1; Tos = Cc1ccc(S(=O)(=O)*)cc1; Octanoyl = CCCCCCCC(=O)*

For the test, the target named is T1, GPR39 (G protein coupled receptor 39). As to the kind of experiment: cell-based or functional assay.
On to H(4‑methoxybenzhydryl)K(Octanoyl)[dPhe(4-Me)]Y-OH [HKFY-64], for which the “EC50; SRE-luciferase reporter” value was found to be 7 nM and the “ECmax; SRE-luciferase reporter” value was 16 -fold induction over basal.
In the same order, the values of H(2‑(4-tert-butyl)phenyl)K(Octanoyl)[dPhe(4-Me)]Y-OH [HKFY-60] are 190 nM and 28.2 -fold induction over basal.
The corresponding values for H(Trt)K(Octanoyl)LY-OH [HKFY-51] are 120 nM and 14.4 -fold induction over basal.
Consider H(2‑cyclohexylethyl)K(Octanoyl)FY [HKFY-11], for which the “EC50; SRE-luciferase reporter” value is 57800 nM and the “ECmax; SRE-luciferase reporter” value was 22 -fold induction over basal.
For [dH](Benzhydryl)K(Octanoyl)[dPhe(4-Me)]Y-OH [HKFY-62], the “EC50; SRE-luciferase reporter” value is 830 nM and the “ECmax; SRE-luciferase reporter” value is 28.1 -fold induction over basal.
Consider H(Trt)[dK](Octanoyl)[dPhe(4-Cl)]Y [HKFY-16], for which the “EC50; SRE-luciferase reporter” value was determined as 240 nM and the “ECmax; SRE-luciferase reporter” value is 27.9 -fold induction over basal.
For H(Trt)K(Octanoyl)[dPhe(4-CF3)]Y-OH [HKFY-76], the “EC50; SRE-luciferase reporter” value was found to be 7 nM and the “ECmax; SRE-luciferase reporter” value is 14.2 -fold induction over basal.
H(Trt)K(Octanoyl)FY [HKFY-1]: the “EC50; SRE-luciferase reporter” value stood at 150 nM and the “ECmax; SRE-luciferase reporter” value was 20.5 -fold induction over basal.
In the same order, the values of [dH](Trt)K(Octanoyl)[dPhe(4-Cl)][dY] [HKFY-14] are 20 nM and 20.9 -fold induction over basal.
H(Trt)K(caproic)FYDQQARF (also: C-terminal Phe amide in IUPAC name, not in sequence formula) [HKFY-56]: the “ECmax; SRE-luciferase reporter” value was 14.9 -fold induction over basal.
As for H(Tos)K(Octanoyl)[dPhe(4-Me)]Y-OH [HKFY-75], the “EC50; SRE-luciferase reporter” value was found to be 1 nM and the “ECmax; SRE-luciferase reporter” value was 15.9 -fold induction over basal.
For H(Trt)FYDQQARF (also: C-terminal Phe amide in IUPAC name, not in sequence formula) [HKFY-52], the “EC50; SRE-luciferase reporter” value was 56400 nM and the “ECmax; SRE-luciferase reporter” value was 15.5 -fold induction over basal.
On to H(Benzhydryl)K(Octanoyl)[dPhe(4-Me)][Tyr(3,5-(NO2)2)] [HKFY-69], for which the “EC50; SRE-luciferase reporter” value was determined as 15 nM and the “ECmax; SRE-luciferase reporter” value is 12.2 -fold induction over basal.
For the molecule H(Trt)K(Octanoyl)[dPhe(4-Cl)]Y [HKFY-13], the “EC50; SRE-luciferase reporter” value came to 14 nM and the “ECmax; SRE-luciferase reporter” value is 25.7 -fold induction over basal.
With H(1‑(4-tert-butyl)phenyl)K(Octanoyl)[dPhe(4-Me)]Y-OH [HKFY-61], the “EC50; SRE-luciferase reporter” value turned out to be 20 nM and the “ECmax; SRE-luciferase reporter” value is 9.88 -fold induction over basal.
On to H(Benzhydryl)K(Octanoyl)[dPhe(4-Me)][Tyr(3-Cl)]-OH [HKFY-67], for which the “EC50; SRE-luciferase reporter” value came to 43 nM and the “ECmax; SRE-luciferase reporter” value is 10.2 -fold induction over basal.
In the same order, the values of H(Trt)GSK(Octanoyl)FY-OH [HKFY-53] are 340 nM and 8 -fold induction over basal.
The corresponding values for H(Benzhydryl)K(Octanoyl)[dPhe(4-Me)][Tyr(3-NH2)]-OH [HKFY-70] are 20 nM and 10.1 -fold induction over basal.
For the molecule H(Mtt)K(Octanoyl)FY [HKFY-5], the “EC50; SRE-luciferase reporter” value came out at 1840 nM and the “ECmax; SRE-luciferase reporter” value is 16 -fold induction over basal.
Regarding H(2‑phenylethyl)K(Octanoyl)FY-OH (not fully specified) [HKFY-9], the “EC50; SRE-luciferase reporter” value is 42700 nM and the “ECmax; SRE-luciferase reporter” value is 21 -fold induction over basal.
In the same order, the values of H(Benzhydryl)K(Octanoyl)[dPhe(4-Me)][Tyr(3-NO2)]-OH [HKFY-68] are 13 nM and 10.8 -fold induction over basal.
On to His(Benzhydryl)-Lys(Octanoyl)-OH [HKFY-79], for which the “EC50; SRE-luciferase reporter” value turned out to be 970 nM and the “ECmax; SRE-luciferase reporter” value is 11.2 -fold induction over basal.
Turning to H(thiophene)K(Octanoyl)[dPhe(4-Me)]Y-OH [HKFY-63], the “EC50; SRE-luciferase reporter” value was 6 nM and the “ECmax; SRE-luciferase reporter” value was 13.5 -fold induction over basal.
In the same order, the values of K(Octanoyl)H(Trt)FY [HKFY-55] are 2490 nM and 16.8 -fold induction over basal.
As for H(Trt)K(Octanoyl)[dPhe(4-Cl)][dY] [HKFY-15], the “EC50; SRE-luciferase reporter” value was determined as 98 nM and the “ECmax; SRE-luciferase reporter” value is 24.7 -fold induction over basal.
H(DAMP‑2)K(Octanoyl)FY [HKFY-8]: the “EC50; SRE-luciferase reporter” value came to 33600 nM and the “ECmax; SRE-luciferase reporter” value was 17.3 -fold induction over basal.
The corresponding values for H(2‑phenyl)K(Octanoyl)[dPhe(4-Me)]Y-OH [HKFY-57] are 260 nM and 8.5 -fold induction over basal.
For the molecule H(Trt)K(Octanoyl)[dF]Y-OH (not fully specified; printed as His(trt)-Lys(caprylic)-d-Phe-Tyr) [HKFY-12], the “EC50; SRE-luciferase reporter” value came out at 35 nM and the “ECmax; SRE-luciferase reporter” value was 20.7 -fold induction over basal.
H(DAMP‑5)K(Octanoyl)FY [HKFY-7]: the “EC50; SRE-luciferase reporter” value turned out to be 1560 nM and the “ECmax; SRE-luciferase reporter” value was 16 -fold induction over basal.
In the same order, the values of H(1,2‑diphenyl)K(Octanoyl)[dPhe(4-Me)]Y-OH [HKFY-59] are 550 nM and 6.76 -fold induction over basal.
As to Biotin-H(Trt)K(Octanoyl)FY [HKFY-2], the “EC50; SRE-luciferase reporter” value was determined as 140 nM and the “ECmax; SRE-luciferase reporter” value is 15 -fold induction over basal.
Regarding Biotin-H(Benzhydryl)K(Octanoyl)[dPhe(4-Me)]Y-OH [HKFY-72], the “EC50; SRE-luciferase reporter” value is 11 nM and the “ECmax; SRE-luciferase reporter” value is 10.4 -fold induction over basal.
In the case of HK(Octanoyl)FY (not fully specified (residue 1)) [HKFY-10], the “EC50; SRE-luciferase reporter” value stood at 46500 nM and the “ECmax; SRE-luciferase reporter” value was 14 -fold induction over basal.
Turning to H(1‑phenyl)K(Octanoyl)[dPhe(4-Me)]Y-OH [HKFY-58], the “EC50; SRE-luciferase reporter” value turned out to be 20 nM and the “ECmax; SRE-luciferase reporter” value is 9.12 -fold induction over basal.
As for H(Benzhydryl)K(Octanoyl)[dPhe(4-Me)]Y-NH2 [HKFY-66], the “EC50; SRE-luciferase reporter” value was 11 nM and the “ECmax; SRE-luciferase reporter” value is 20.2 -fold induction over basal.
The corresponding values for H(DAMP‑3)K(Octanoyl)FY [HKFY-6] are 68400 nM and 15 -fold induction over basal.
For H(Trt)K(Octanoyl)FS [HKFY-50], the “EC50; SRE-luciferase reporter” value stood at 700 nM and the “ECmax; SRE-luciferase reporter” value is 16.2 -fold induction over basal.
Regarding Lys(Octanoyl)-Phe-Tyr [HKFY-54], the “EC50; SRE-luciferase reporter” value came out at 25900 nM and the “ECmax; SRE-luciferase reporter” value is 7.8 -fold induction over basal.
Turning to H(4‑hydroxybenzhydryl)K(Octanoyl)[dPhe(4-Me)]Y-OH [HKFY-65], the “EC50; SRE-luciferase reporter” value worked out at 3 nM and the “ECmax; SRE-luciferase reporter” value was 18.3 -fold induction over basal.
